Data reported in publication PMC3404464 (ACS medicinal chemistry letters, 2012).

Key:
[1] = tested on: CC(=O)N[C@H]1[C@H](O[C@H]2[C@H](O[C@H](C)C(=O)N[C@@H](C)C(=O)N[C@H](CCC(=O)N[C@@H](CCC[C@@H](N)C(=O)O)C(=O)N[C@H](C)C(=O)N[C@H](C)C(=O)O)C(=O)O)[C@@H](NC(C)=O)[C@@H]3OC[C@H]2O3)O[C@H](CO)[C@@H](O)[C@@H]1O; assay: Turnover of synthetic substrates by NagZ; format: biochemical, Pseudomonas aeruginosa; details: other: substrate hydrolysis by NagZ
[2] = tested on: CO[C@@H]1O[C@H](CO)[C@@H](O[C@@H]2O[C@H](CO)[C@@H](O)[C@H](O)[C@H]2NC(C)=O)[C@H](O[C@H](C)C(=O)N[C@@H](C)C(=O)N[C@H](CCC(=O)N[C@@H](CCC[C@@H](N)C(=O)O)C(=O)N[C@H](C)C(=O)N[C@H](C)C(=O)O)C(=O)O)[C@H]1NC(C)=O; assay: Turnover of synthetic substrates by NagZ; format: biochemical, Pseudomonas aeruginosa; details: other: substrate hydrolysis by NagZ
[3] = biological target: lytic transglycosylase MltB of Escherichia coli (Escherichia coli, UniProt P41052); assay: MltB binding by intrinsic tryptophan/tyrosine fluorescence; details: excitation 280 nm
Chain of lytic transglycosylase MltB of Escherichia coli (P41052 19-361): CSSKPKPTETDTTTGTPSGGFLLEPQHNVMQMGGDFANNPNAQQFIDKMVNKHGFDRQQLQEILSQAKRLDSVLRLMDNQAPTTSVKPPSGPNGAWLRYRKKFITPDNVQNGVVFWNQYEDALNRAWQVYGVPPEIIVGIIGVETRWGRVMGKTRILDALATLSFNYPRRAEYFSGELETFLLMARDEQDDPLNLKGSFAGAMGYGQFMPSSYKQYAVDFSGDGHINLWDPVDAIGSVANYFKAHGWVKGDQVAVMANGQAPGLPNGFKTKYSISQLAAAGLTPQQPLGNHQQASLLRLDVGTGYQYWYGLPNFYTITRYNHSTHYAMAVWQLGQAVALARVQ

Row | Compound | Km [1] [µM] | kcat [1] [s⁻¹] | kcat/Km [1] | Km [2] [µM] | kcat [2] [s⁻¹] | kcat/Km [2] | kns (non-saturable, presumably non-specific binding mode) [3] [µM⁻¹]
1 | NagZ of P. aeruginosa (Pseudomonas aeruginosa PAO1) | 104 ± 2 | 6.6 ± 0.2 | 6.3 ± 0.2 × 10^4 M^−1s^−1 | 165 ± 36 | 0.77 ± 0.04 | (0.5 ± 0.1) × 10^4 M^−1s^−1 | 
2 | CC(=O)N[C@H]1CN[C@H](CO)[C@@H](O)[C@@H]1O[C@H](C)C(=O)O.Cl [compound 4] |  |  |  |  |  |  | 0.060 ± 0.006
3 | CC(=O)N[C@H]1CN[C@H](CO)[C@@H](O)[C@@H]1O.Cl [compound 3, 2-acetamido-1,2-dideoxynojirimycin] |  |  |  |  |  |  | 0.128 ± 0.004
